These results are taken from a protein production outcome set (Wang et al. 2014).

The nature of this series: label from the status in PepcDB records.
For the sequence “MSLNILVIGTGAIGSFYGALLAKTGHCVSVVARSDYETVKAKGIRIRSATLGDYTFRPAAVVRSAAELETKPDCTLLCIKVVEGADRVGLLRDAVAPDTGIVLISNGIDIEPEVAAAFPDNEVISGLAFIGVTRTAPGEIWHQAYGRLMLGNYPGGVSERVKTLAAAFEEAGIDGIATENITTARWQKCVWNAAFNPLSVLSGGLDTLDILSTQEGFVRAIMQEIRAVAAANGHPLPEDIVEKNVASTYKMPPYKTSMLVDFEAGQPMETEVILGNAVRAGRRTRVAIPHLESVYALMKLLELRTSKSLWGNEGHHHHHH”, the protein production entry was “not failed”.
As for “RRAKALLDFERHDDDELGFRKNDIITIISQKDEHCWVGELNGLRGWFPAKFVEVLDERSKEYSIA”, the entry is “not failed”; as for “MRGRMTRSQLILAILAGLVISIDNMISIVAFSSLIYQGALEIYIPLVINILAISVIIISASYLFMSSPPYAIAQLQDEAAILYSAMGLVIIKSMPSSSTNEAIFITILFMLGVTTCLTGLSFYFVGKFRFGNIIRYLPYPVICGFMAATGWLVLSGTFALLTGKALHQNWLVFFHKEEILLWAPGFIAGIVVYIFKEKLGYRYALQLMFISLVILFYALFYIFNLEYLVDPTEGYVLGPFNQSHIDSLMKPEIWQMIHYPFSMTLLNYIGLVILVSFIALLLNASSYELIVNKQLDLNKELRIAGIGNVFSGLLGGMVGYLSLSASTVAKEYGGARIIGVMAFVPMLLILCFGAVVVECFPKMAIGCYLFYIAFCFLSEWLINTWRLLNLSEYLIVLLILVIAIVFNMITAVAIGTVISIFIFAFRYSKINPVKYLFSGADYNSSFERNPISQSILSTQGDEIQFLKLQGFLFFGSIYRLLQLIKSIQKARYIILDFELVYNIDSSRIILMKNLKLHAEKNNISFAICSLKPIVYHELMKTNLLQSKTNWLKVFTDQESALEWCEDQVIEKYTENINIEEVTLEKQLLYLGFSSELVAWISEKASIKPYNPDDIICHEGEESNSVYFIHRGRVTAFVGDKRVLVVGSGNVLGEIAIYTHKKRTATLKTNEKTIVYEIDLKSIQELSKNKPLLLVQFHVCMAKILANRLSVLNKRIKVFDSTAILQ”, “failed”; as for “MVSRSPFESFQWKSDIFNCESTDIDNFYLLLEQEMTRLGMVEKNLGEVGKYKVSLYQSPAAKSGLPSLLISAGFHGEESAGPWGLLHFLSEASADLFERVNLSLLPLVNPTGFSRGHRFNKYGENPNRGFVFENGKPKANEHTSVEGKLLLDHAQLLIAACRDGILTCHEDVLSREAYVYSFEPSQVPGRFSLDLRDTLGGYFPIAVDGEIDACPVKDGLIFNHFDTSFEACLVRSGARVGACTETPALQNFDQRVLANSAAMTHFLALCAPLCD”, “not failed”.
In the case of “MERGVDNWKVDCKCGTKDDDGERMLACDGCGVWHHTRCIGINNADALPSKFLCFRCIEL” it was “not failed”.
Regarding “MDLGYLKSKESGFIAGMILCTAFMGSSFPSGKYLISEEAMPAFYAGGWRFLLAGGLILAFCAAKDGLGAILPASGGSVIKGALFVLVVGCLQTAGTMGFLNLALTTLSASMASLLLFTNPLWVAILAHFALGETLSWHKVVALVCGILGVSLCLGGGADHGLGGIVIALAGSLCWALCTLISKKHKFDKSVFVFTGWQLTLGALVMLAISKLSGEAYDIDRITGWGIACFIWLVGPASIGSFGLWFTALSRRGATVTSSYLFLVPLFSAVFSMMVLGEAVSPHSLIGGAIIIVALWLINLPQTVSAVWRERLGL”, the protein production entry is given as “failed”.
Take “MSLEFFMAKADNPAFEQGQSPRMRLPDSVPLLIVGGGIMGLWAAVKAERLGIGTLLVEAGRLGGGASGGLLGALMPHMPDRWSDKKQFQFDALVALEAEIAGLEAETGLSGGYRRCGRIIPLPKPHLRGIAERHERDAAENWRSGERRFQWHVGERPSVAGWVDDAAGEAGFVFDTLAARVSPRALIALLSAFLRKARHVQVAEGCRVVSLDADAGRAALSSGEEISFGHVVVANGHESFPLIRDALGLEAGVALGQAVKGQAALLDASADPAMPVVFLNGLYIVPHEDGTVAIGSTSEDCFSEPFSTDEKLEKLLVDACTVVPSLAGAPVLERWAGLRPKAVGRDPMVGAMAGTAKLVALSGGFKVSFGLAHFLADAALETVCGHTPVIPSGFRLQEHVSIAVPDFRKFLEHHHHHH”: the protein production entry was “failed”.
In the case of “MSNMEKHLFNLKFAAKELSRSAKKCDKEEKAEKAKIKKAIQKGNMEVARIHAENAIRQKNQAVNFLRMSARVDAVAARVQTAVTMGKVTKSMAGVVKSMDATLKTMNLEKISALMDKFEHQFETLDVQTQQMEDTMSSTTTLTTPQNQVDMLLQEMADEAGLDLNMELPQGQTGSVGTSVASAEQDELSQRLARLRDQV”, the protein production entry is “not failed”.
Regarding “MTRVQANMLLLLAAAIWGGGFVAQSSAMSSIGPFWFVGLRFAIAAIAVLPFALMETRSLKSPPRRREIGSFILVGLALFGGATTQQVGLLTTTVTNSSFLTGLYVIFVPVIAVVLYRRHPHWVVWPCALMMLGGIFLLSGGAFETLTTGDILSIICAFFWAIQITLAGRFVSESGRPLALSFTQFAVCSLLSCMIGVVFEPISMAAIEASMMEILYVGLVSSGLAFVLQVIGQRYTTAPQAAIFLSSEALFGALMASIFLKETISSAGYVGCLIIFVAILIVELVPELTRKRQKTVAEAS”, the protein production entry is “failed”.
For the sequence “MERVAVVGVPMDLGANRRGVDMGPSALRYARLLEQLEDLGYTVEDLGDVPVSLARASRRRGRGLAYLEEIRAAALVLKERLAALPEGVFPIVLGGDHSLSMGSVAGAARGRRVGVVWVDAHADFNTPETSPSGNVHGMPLAVLSGLGHPRLTEVFRAVDPKDVVLVGVRSLDPGEKRLLKEAGVRVYTMHEVDRLGVARIAEEVLKHLQGLPLHVSLDADVLDPTLAPGVGTPVPGGLTYREAHLLMEILAESGRVQSLDLVEVNPILDERNRTAEMLVGLALSLLGKRIF”, the protein production result was “not failed”.
As for “FDQAPVLVVGDVMLDRYWHGGTSRISPEAPVPVVKVDQIEDRPGGAANVALNIAALGAPASLVGVTGDDEAAESLTNSLKAAGVVARFQRIADQPTIVKLRVMSRHQQLLRIDFEEPFNTDPLALSAEVYSLLDGIKVLVLSDYGKGALKNHQALIQAARKRGIPVLADPKGKDFAIYRGASLITPNLSEFEAIVGHCEDEAQLVTKGAQLMQELDLGALLVTRGEHGMTLLRPDQQALHLPARAREVFDVTGAGDTVISTLAAAIAAGEELPHAVALANLAAGIVVGKLGTAAISAPELRRAIQR”, the entry is “failed”.
As for “MCLALPAQIDQVLEDNKAIVNLGGITKEISTVLLEQVSEGEYVIIHAGFALTKLDEREANKTLSLFAHMLKDG”, the entry is “not failed”.
Consider “ENEIERPEDMRVRTLANKSKMKVSIVQQIDRKVALDDIAVSHGLDFPELLSEVETIVYSGTRINIDYFINEVMDEDHLEDIFEYFKESTTDSLEEAMQELGKDYSEEEIRLVRIKFLSEMAN”, for which the protein production entry is on record as “not failed”.
Consider “MAGGAVSKGNVIVGLFRKRTSLLITSILLGLIGLPSLGVLDIGNLARAEKAATNAPSPTTPDIKPSELKPAYPASAPPPRVDPLPDERDMQERVVEIDYRVSNLLGDFAGNLWVGSWRGLSRIDPKTGKILARVSLPNVAIGALAQDKVGRLWVGTYEGLKRVEPRTNEISAQNLFLPSKRVLSLLTDKRGYLWVGTDNGLALVSPDQGLIMTTVKNLPGVSGNTLTLDADGQLWTGTLDGVVRINTASALIMKRINDLPGTTVQALAISPEGLIWAGMPNNLLVINPKTGVVLRSVTRLRGRNVTAVRFAKDGSVWVGTHNGLLRLNPNTGAVLDEVAGLPSSRVLSLMPDVANKLWIGTSEGLAWLMPKMDKAKPHLAFSRLVK”, for which the protein production entry is given as “failed”.
“MEDETLGFFKKTSSSHARLNVPALVQVAALAIIMIRGLDVLMIFNTLGVRGIGEFIHRSVQTWSLTLVFLSSLVLVFIEIWCAFSLVKGRRWARWLYLLTQITAASYLWAASLGYGYPELFSIPGESKREIFHSLMLQKLPDMLILMLLFVPSTSRRFFQLQ”: the protein production entry is “failed”.
For “MFQIGEHNMILIYKLTLTKLTEDELKKDFATIPSWATHLDLSNNRLGETSNEELIRVFAKIPGWISHIKLRFNNLGQKNGKDLAKAFAKIPISVTTLDLGSNQLGKKSGEELANAFAGIPTSVTRLILSQNELYKRTGGELATAFAKIPSSVTHLVLVNNGLGEKNGKELATAFANIPSSVTTLDLALNDLSKIKSTELAVIFTKIPTSVTQLDLSHNNLNKKSGKNLAKIFANIPTSVTNLNLSCNELGKKSGKGLAAAFAKIPTSVTDLNIEDNDLDNRTGKELAMAFAHIPAFVNTLRLGDNNLGNKSGEELAEIFAKIPLSVTSLDLRYNELGKRNGKELAIAFAKIPSSVTNLNLKFNHLGKITGEELAMAFANIPTNVDSLVLANNELGAKSGEELAKIFSKIPASITSLNMGNDWFAVIEKLSQQKMVLSTITHVVIDYSSAQEHSAKLKLLATVFPNLNKVTFMDIHGNNALAGQNPIEEAKWLKLCGIKNSVPSLLSQALFFVAKNKEHRSIQDYPSLLPKELTDSISSLLKC”, the protein production result is listed as “failed”.
For the sequence “MAVRVCCHAPPGVSNHLFTFCAGNLTTGFSGGSVTSQKGGAAGLPTCSRRCPRGCLPGSDPLPRHPRRYAPPVTPPVTPPTTPAPRSRARMLELVFPKDTNYHGTAFGGWVLALMDKAASVAAVRHAGGNVVTARMDGVDFHVPIRVGDAVALDARVIRVGRSSMTIRVDVYRENMASGEQQLATGGLFTFVALGEDGKPRPVPPLPEGSTDSEQPDYEARP”, the protein production entry is given as “failed”.
As to “MKTLFWRTLVVIFIILGVIGAILPGMPTTVFLILAAWAASKGWPEMDEWLLNHPKYGPTLRDWRAHGTVPRKAKWIASIMMLISAIMMLFTNAPFWVKVFTDTTMLIVAIWLWLRPEPVKLPLESPTLHQNTEDEHV”, the protein production entry is “failed”.
Consider “MGVATMVTDKYQKCIDACNRCSQACYECFKACLNEPDVNARRTCISILFECAQMCQMSSALMSMDAQFAIDHCKLCSVICDKCAQECSMFQDPHCQKCANECRTCSNECRMMSGMLEHHHHHH”, for which the protein production result is “not failed”.
As for “MPRTQKNDNFVDKSFTVMADIILKILPTNKKAKEAFVYYRDGMSAQAEGEYAEALEYYEEALTLEEDTNDRGYILYNMGLIYASNGDHDKALELYHQAIELNPRLPQALNNIAVIYHYQGEKAKETGDHDGGEALFDQAADYWIRAIRMAPNNYIEAQNWLKTTGRMQIDVFF”, the entry is “failed”.
For “MPLTDTPPSVPQKPRRGRPRGAPDASLAHQSLIRAGLEHLTEKGYSSVGVDEILKAARVPKGSFYHYFRNKADFGLALIEAYDTYFARLLDQAFLDGSLAPLARLRLFTRMAEEGMARHGFRRGCLVGNLGQEMGALPDDFRAALIGVLETWQRRTAQLFREAQACGELSADHDPDALAEAFWIGWEGAILRAKLELRPDPLHSFTRTFGRHFVTRTQE”, the protein production result is “not failed”.
For “MGHHHHHHSHMSIPSSQYGFVFNKQSGLKLRNDLPVHKPKAGQLLLKVDAVGLCHSDLHVIYEGLDCGDNYVMGHEIAGTVAAVGDDVINYKVGDRVACVGPNGCGGCKYCRGAIDNVCKNAFGDWFGLGYDGGYQQYLLVTRPRNLSRIPDNVSADVAAASTDAVLTPYHAIKMAQVSPTSNILLIGAGGLGGNAIQVAKAFGAKVTVLDKKKEARDQAKKLGADAVYETLPESISPGSFSACFDFVSVQATFDVCQKYVEPKGVIMPVGLGAPNLSFNLGDLALREIRILGSFWGTTNDLDDVLKLVSEGKVKPVVRSAKLKELPEYIEKLRNNAYEGRVVFNP”, the protein production entry is on record as “not failed”.
In the case of “MGTHIKNQYISPPNTVYDCSIVKLPKIENRSGNITPIHSWVNIPFQIKRIFYSYDIPGGESRGAHAHKKCHQFLIAASGSFEVVLDDGISKRTVLLNRPFYGLHIPPGIWASEQGFSSGSVCLVLASHVYEEDDYLRDYQGFLNYKSQGIFEMFINVNGGGVSPKIFYLPFLFTKSKEEVA” it was “failed”.
